# From patent US20050064507A1, “Determining kinase specificity” (priority 2003, published 2005)
# Target: T1, PKC-theta (Homo sapiens, UniProt Q04759)
# T1 construct: His-tag; made in house; host or cells: baculovirus-infected Sf9 cells
# Assay: In vitro kinase assay: peptide phosphorylation by PKC-theta
# Assay type: biochemical
# Conditions: for Measured in vitro phosphorylation by PKC-theta: normalized to best substrate
# Description: A second strategy for validation of the PSSM derived from the methods described herein is to identify sequences represented in the human proteome that have low percentiles derived from the PSSM, to synthesize peptides that have those sequences, and test the efficiency of phosphorylation of those peptides by the kinase of interest. […] The results are shown for individual peptides (FIG. 11, panel A) or for groups of peptides aggregated by percentile prediction (FIG. 11, panel B). As with the testing described above with prospectively chosen peptides, the percentile scores are highly predictive of phosphorylation by the relevant kinase.
# An example of the purification procedure used for production of active kinase is as follows. A preparation of PKC-theta was prepared using a Gateway expression construct containing PKC-theta that was expressed in baculovirus, which were used to infect Sf9 cells. The cell pellet from a liter of baculovirus-infected Sf9 cells was resuspended in 20 volumes (60 ml) of extraction buffer (20 mM Na phosphate buffer pH 7.5, 500 mM NaCl, 5 mM pyrophosphate, 10% glycerol, 10 mM imidazole, 1 mM PMSF), sonicated twice for one minute (1 cm tip at 60% power and 50% duty cycle) and cell disruption was verified microscopically. The sample was adjusted to five mM MgCl2 and treated with one U benzonase/ml for an additional 20 minute on ice. The sample was clarified by centrifugation in a JA-20 rotor at 15K for 30 min at 4° C., filtered through a […] filter and applied at 0.5 ml/min to a one ml chelating sepharose column previously charged with nickel and equilibrated with extraction buffer. The column was washed with extraction buffer at one ml/min to baseline and eluted in a 20 ml gradient (20-500 mM imidazole in extraction buffer) into one ml fractions that were analyzed by SDS-PAGE. Fractions with the highest concentration of protein were pooled, were dialyzed twice against one liter of 20 mM Na PO4 pH 7.5, 50 mM NaCl buffer. The kinase pool was dialyzed twice against 20 mM HEPES pH 7.4, 100 mM NaCl, 2 mM EDTA, 5 mM DTT, 0.05% Triton-X-100. After dialysis, the sample was adjusted to 50% glycerol and quick-frozen in a dry ice/ethanol bath.
# The conditions of the kinase assay and the amount of active kinase used varied with the kinase and with the accuracy needed. For a typical experiment, 5-20 ng of kinase was used per well and each peptide pool was assayed in duplicate wells. Note that the absolute amount of kinase used was not usually a critical parameter, because the desired information related to specificity of the kinase not its absolute activity, and robustness of the assay depends on comparisons of the same amount of kinase on different peptides. The combination of kinase concentration and assay duration was modified to assure that the stoichiometry of peptide phosphorylation never exceeded 5%. The choice of kinase buffer depended on the kinase being analyzed. For studies of PKC, 100 mM HEPES, 0.05% Triton-X100, 1 mM CaCl2, 20 mM MgCl2, 0.2 mg/ml phosphatidyl serine (Avanti Polar Lipids), PMA 100 ng/ml was typically used. The lipid stock was prepared by transferring 3 mg phosphatidyl serine into iced mixture of 450 μl water plus 50 μl of 10% Triton-X100, sonicating 10 times on ice for 1 sec each.
# The kinase reaction mixture was assembled by sequential addition to a tube held on ice of: 5 μl peptide (100 μM for final concentration of 10 μM), 15 μl of kinase (typically 5 ng/well, in appropriate kinase buffer), 30 μl of ATP (1 uCi/well of ^32P-gamma ATP in a stock of 167 μM cold ATP in the kinase buffer; for final concentration for 100 μM ATP). The mixture was rapidly warmed to desired reaction temperature (30° C. for PKC) and incubated for the desired duration (usually 10 minutes). The kinase assay was terminated by transfer to 4° C. water batch, and rapid addition of an equal volume (50 μl) of stop solution [0.1M ATP+0.1M EDTA in water, pH 8]. […]
# T1 sequence (Q04759 whole entry): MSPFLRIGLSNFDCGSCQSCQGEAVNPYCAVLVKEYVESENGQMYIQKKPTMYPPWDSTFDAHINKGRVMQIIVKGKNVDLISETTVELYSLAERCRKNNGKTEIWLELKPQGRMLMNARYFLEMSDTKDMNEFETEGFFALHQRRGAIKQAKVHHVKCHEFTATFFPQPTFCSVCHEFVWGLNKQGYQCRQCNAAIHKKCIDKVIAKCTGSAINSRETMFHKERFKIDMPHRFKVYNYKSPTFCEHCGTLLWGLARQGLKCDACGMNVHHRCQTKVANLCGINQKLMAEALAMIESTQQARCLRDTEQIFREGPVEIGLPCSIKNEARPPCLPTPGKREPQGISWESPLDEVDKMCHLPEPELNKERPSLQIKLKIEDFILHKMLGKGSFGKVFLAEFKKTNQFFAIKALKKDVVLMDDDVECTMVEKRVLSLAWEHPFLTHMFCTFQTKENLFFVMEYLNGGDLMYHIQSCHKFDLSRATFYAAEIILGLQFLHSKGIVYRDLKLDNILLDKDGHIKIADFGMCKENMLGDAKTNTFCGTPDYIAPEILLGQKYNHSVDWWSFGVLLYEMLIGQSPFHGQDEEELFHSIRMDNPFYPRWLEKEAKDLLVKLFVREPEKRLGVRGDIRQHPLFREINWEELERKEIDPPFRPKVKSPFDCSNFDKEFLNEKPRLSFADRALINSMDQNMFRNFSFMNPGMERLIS
Substance,Measured in vitro phosphorylation by PKC-theta [%],in vitro phosphorylation by PKC
188 (ERGRRGSKKGSI) [compound 188],44,
176 (RRERSRSRRKQ) [compound 176],66,
173 (RSGRRRGSQKS) [compound 173],85,
174 (KKERRRNSINRN) [compound 174],83,
181 (TGERKRKSVRG) [compound 181],62,
184 (FRASSRSTTK) [compound 184],54,
180 (FLRRSSSRRNRS) [compound 180],65,
172 (VRRRRSQRISQR) [compound 172],86,
187 (LRRKSSTRHIHA) [compound 187],48,
189 (GRRRRSRSKVK) [compound 189],43,
183 (ARRSKRSRRRET) [compound 183],55,
186 (DFRRRRSFRRIA) [compound 186],50,
169 (RTRSRRLTFRK) [compound 169],100,
171 (RRGRRSTKKRRR) [compound 171],92,
175 (KKRRTKSSRRGV) [compound 175],80,
185 (KKFKRRLSLTLR) [compound 185],51,
170 (VKLRRSKKRTKR) [compound 170],98,
177 (RRRRRRSRTFSR) [compound 177],66,
178 (RRRRSRTFSRS) [compound 178],65,
168 (AMSRSASKRRSR) [compound 168],100,

# The next lines start with the values.
Measured in vitro phosphorylation by PKC-theta [%],in vitro phosphorylation by PKC,Substance
35,,193 (PLRKSSLKKGGR) [compound 193]
24,,203 (VRRSKKSKKKES) [compound 203]
40,,190 (RRRRHTMDKDSR) [compound 190]
17,,208 (VSRPRKSRKRVD) [compound 208]
25,,201 (TQDRRKSLFKKI) [compound 201]
13,,213 (RHSRSRSRHRLS) [compound 213]
27,,199 (RGRRSRSRLRRR) [compound 199]
17,phosphorylated by PKC,209 (DKEKSKGSLKRK) [compound 209]
13,,212 (VSRGSSLKILSK) [compound 212]
24,,202 (VMKRKFSLRAAE) [compound 202]
18,,207 (SFRGHITRKKLK) [compound 207]
12,,215 (TKKRSKSRSKER) [compound 215]
13,,214 (SRRRSPSYSRHS) [compound 214]
11,,216 (SCRTSSRKRAGK) [compound 216]
35,,192 (GNRKGKSKKWRQ) [compound 192]
33,,195 (PGSSHRKTKK) [compound 195]
16,,210 (PLRRRESMHVEQ) [compound 210]
32,,196 (RWKRRRSYSREH) [compound 196]
26,,200 (EQQRRALSFRQ) [compound 200]
19,,206 (KSSRNSTSVKKK) [compound 206]
16,,211 (RSRSYSRSRSR) [compound 211]
34,,194 (KRRKRKSLQRHK) [compound 194]
22,,204 (RFSRRSSSWRIL) [compound 204]
